This assay in a line: P450BM3 compilation plate screen (GC, cyclopropane peaks). Type of assay: biochemical. The settings on record: P450BM3 variants; for ee (cis): (R,S)-(S,R), chiral β-CDX GC; for de: diastereomeric excess = ([cis] − [trans])/([cis] + [trans]); for Absolute activity: sum of the area of the cyclopropane peaks over the area of the internal standard.

B1: 9-10A TS F87A: 9-10A TS + F87A (protein, listed as Bacillus megaterium)
chain: TIKEMPQPKTFGELKNLPLLNTDKPVQALMKIADELGEIFKFEAPGRVTRYLSSQRLIKEACDESRFDKNLSQALKFARDFAGDGLATSWTHEKNWKKAHNILLPSFSQQAMKGYHAMMVDIAVQLVQKWERLNADEHIEVSEDMTRLTLDTIGLCGFNYRFNSFYRDQPHPFIISMVRALDEVMNKLQRANPDDPAYDENKRQFQEDIKVMNDLVDKIIADRKARGEQSDDLLTQMLNGKDPETGEPLDDGNIRYQIITFLIAGHETTSGLLSFALYFLVKNPHVLQKVAEEAARVLVDPVPSYKQVKQLKYVGMVLNEALRLWPTAPAFSLYAKEDTVLGGEYPLEKGDEVMVLIPQLHRDKTVWGDDVEEFRPERFENPSAIPQHAFKPFGNGQRACIGQQFALHEATLVLGMMLKHFDFEDHTNYELDIKETLTLKPKGFVVKAKSKKIPLGGIPSPSTEQSAKKVRKKAENAHNTPLLVLYGSNMGTAEGTARDLADIAMSKGFAPQVATLDSHAGNLPREGAVLIVTASYNGHPPDNAKQFVDWLDQASADEVKGVRYSVFGCGDKNWATTYQKVPAFIDETLAAKGAENIADRGEADASDDFEGTYEEWREHMWSDVAAYFNLDIENSEDNKSTLSLQFVDSAADMPLAKMHGAFSTNVVASKELQQPGSARSTRHLEIELPKEASYQEGDHLGVIPRNYEGIVNRVTARFGLDASQQIRLEAEEEKLAHLPLAKTVSVEELLQYVELQDPVTRTQLRAMAAKTVCPPHKVELEALLEKQAYKEQVLAKRLTMLELLEKYPACEMKFSEFIALLPSIRPRYYSISSSPRVDEKQASITVSVVSGEAWSGYGEYKGIASNYLAELQEGDTITCFISTPQSEFTLPKDPETPLIMVGPGTGVAPFRGFVQARKQLKEQGQSLGEAHLYFGCRSPHEDYLYQEELENAQSEGIITLHTAFSRMPNQPKTYVQHVMEQDGKKLIELLDQGAHFYICGDGSQMAPAVEATLMKSYADVHQVSEADARLWLQQLEEKGRYAKDVWAG
modifications: cytochrome P450NADPH-P-450 reductase precursor, cytochrome P450 (BM3), CYP102A1
Regarding B1, the “ee (cis)” value is 5, the de was −60 and the Absolute activity worked out at 0.001546.

B2: CYP102A3: CYP102A3, related P450 from Bacillus subtilis (protein, UniProt O08336 1-1054, looked up)
Bifunctional cytochrome …: MKQASAIPQPKTYGPLKNLPHLEKEQLSQSLWRIADELGPIFRFDFPGVSSVFVSGHNLVAEVCDEKRFDKNLGKGLQKVREFGGDGLFTSWTHEPNWQKAHRILLPSFSQKAMKGYHSMMLDIATQLIQKWSRLNPNEEIDVADDMTRLTLDTIGLCGFNYRFNSFYRDSQHPFITSMLRALKEAMNQSKRLGLQDKMMVKTKLQFQKDIEVMNSLVDRMIAERKANPDENIKDLLSLMLYAKDPVTGETLDDENIRYQIITFLIAGHETTSGLLSFAIYCLLTHPEKLKKAQEEADRVLTDDTPEYKQIQQLKYIRMVLNETLRLYPTAPAFSLYAKEDTVLGGEYPISKGQPVTVLIPKLHRDQNAWGPDAEDFRPERFEDPSSIPHHAYKPFGNGQRACIGMQFALQEATMVLGLVLKHFELINHTGYELKIKEALTIKPDDFKITVKPRKTAAINVQRKEQADIKAETKPKETKPKHGTPLLVLFGSNLGTAEGIAGELAAQGRQMGFTAETAPLDDYIGKLPEEGAVVIVTASYNGAPPDNAAGFVEWLKELEEGQLKGVSYAVFGCGNRSWASTYQRIPRLIDDMMKAKGASRLTAIGEGDAADDFESHRESWENRFWKETMDAFDINEIAQKEDRPSLSITFLSEATETPVAKAYGAFEGIVLENRELQTAASTRSTRHIELEIPAGKTYKEGDHIGILPKNSRELVQRVLSRFGLQSNHVIKVSGSAHMAHLPMDRPIKVVDLLSSYVELQEPASRLQLRELASYTVCPPHQKELEQLVSDDGIYKEQVLAKRLTMLDFLEDYPACEMPFERFLALLPSLKPRYYSISSSPKVHANIVSMTVGVVKASAWSGRGEYRGVASNYLAELNTGDAAACFIRTPQSGFQMPNDPETPMIMVGPGTGIAPFRGFIQARSVLKKEGSTLGEALLYFGCRRPDHDDLYREELDQAEQDGLVTIRRCYSRVENEPKGYVQHLLKQDTQKLMTLIEKGAHIYVCGDGSQMAPDVERTLRLAYEAEKAASQEESAVWLQKLQDQRRYVKDVWTGM
Take B2: the “ee (cis)” value was −8, the de is listed as −74 and the Absolute activity is 0.004053.

The values are drawn from patent US20150267232A1, “IN VIVO AND IN VITRO CARBENE INSERTION AND NITRENE TRANSFER REACTIONS CATALYZED BY HEME ENZYMES” (California Institute of Technology, priority 2012, published 2015).
